B1: sβc N346Q, soluble extracellular domain of human βc with the third N-glycosylation site removed (receptor, UniProt P32927 17-443, looked up)
chain: WERSLAGAEETIPLQTLRCYNDYTSHITCRWADTQDAQRLVNVTLIRRVNEDLLEPVSCDLSDDMPWSACPHPRCVPRRCVIPCQSFVVTDVDYFSFQPDRPLGTRLTVTLTQHVQPPEPRDLQISTDQDHFLLTWSVALGSPQSHWLSPGDLEFEVVYKRLQDSWEDAAILLSNTSQATLGPEHLMPSSTYVARVRTRLAPGSRLSGRPSKWSPEVCWDSQPGDEAQPQNLECFFDGAAVLSCSWEVRKEVASSVSFGLFYKPSPDAGEEECSPVLREGLGSLHTRHHCQIPVPDPATHGQYIVSVQPRRAEKHIKSSVNIQMAPPSLQVTKDGDSYSLRWETMKMRYEHIDHTFEIQYRKDTATWKDSKTETLQNAHSMALPALEPSTRYWARVRVRTSRTGYNGIWSEWSEARSWDTESVLPMW
modifications: N-linked carbohydrate at Asn58 (NAG-NAG-MAN) and Asn191 (NAG)
notes: extracellular domain; Intertwined homodimer; Cloned into pIBV5-His; also called sβc ΔN3; GM-CSF βc chain

Experiments:
[1] = molecular target: the molecule itself; test: X-ray crystal structure, 3.3 Å
Method: (§1) The structure was determined by molecular replacement using the method of Storoni et al, Acta Crystallogr. D 60:432, 2004.
(§2) A homology model of domain 2 of the alpha chain was built into this density. […] D Biol. Crystallogr. 50:760, 1994 and refinement using the method of Murshudov et al, Acta Crystallogr. D 53:240, 1997. […] During the final refinement step each subunit was treated as a rigid body for the purposes of TLS (translation, libration and screw rotation tensors) refinement to account for overall differences in displacements between the molecules and anisotropy in the data (Winn et al, Acta Crystallogr. D 57:122, 2001; Painter and Merritt, Acta Crystallogr. D 62:439, 2006).

[2] = molecular target: B1; test: X-ray crystal structure, 3.3 Å
Method: as §1, §2

[3] = molecular target: T1, wild-type sβc, soluble extracellular domain of human βc (human, UniProt P32927 17-443); test: ternary complex formation of soluble proteins (all three present); wild type as the reference
T1 construct: extracellular domain; Expressed in Sf21 cells
T1 sequence (looked up): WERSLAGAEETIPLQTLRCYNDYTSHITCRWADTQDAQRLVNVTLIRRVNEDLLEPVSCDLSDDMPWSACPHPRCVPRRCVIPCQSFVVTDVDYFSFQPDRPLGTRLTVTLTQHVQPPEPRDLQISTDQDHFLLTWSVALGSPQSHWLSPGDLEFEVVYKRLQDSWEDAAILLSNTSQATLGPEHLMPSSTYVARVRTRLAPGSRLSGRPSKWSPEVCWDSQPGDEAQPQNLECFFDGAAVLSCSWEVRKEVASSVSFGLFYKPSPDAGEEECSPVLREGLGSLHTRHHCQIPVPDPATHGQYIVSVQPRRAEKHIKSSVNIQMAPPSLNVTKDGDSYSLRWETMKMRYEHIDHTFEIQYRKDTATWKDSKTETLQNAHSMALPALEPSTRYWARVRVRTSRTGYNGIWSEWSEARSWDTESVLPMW

[4] = molecular target: IL-3 receptor on cells: IL3Rα co-expressed with the βc4 Gpoly-A mutant (M7-βc) (human), P26951; test: cell-based or functional assay
Sequence of IL-3 receptor on cells: IL3Rα co-expressed with the βc4 Gpoly-A mutant (M7-βc) (human), P26951 (P26951 19-378, change not shown): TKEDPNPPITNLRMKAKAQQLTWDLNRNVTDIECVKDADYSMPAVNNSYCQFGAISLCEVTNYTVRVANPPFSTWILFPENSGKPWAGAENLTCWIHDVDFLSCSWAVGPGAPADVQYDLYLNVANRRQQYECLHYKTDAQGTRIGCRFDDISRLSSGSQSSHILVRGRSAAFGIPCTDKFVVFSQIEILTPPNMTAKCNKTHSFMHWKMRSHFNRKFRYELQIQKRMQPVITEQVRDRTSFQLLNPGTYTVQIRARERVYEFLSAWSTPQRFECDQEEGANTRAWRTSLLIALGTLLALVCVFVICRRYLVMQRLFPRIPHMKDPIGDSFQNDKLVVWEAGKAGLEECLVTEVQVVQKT

B1
binding result [1]: binds

B2: sGM-CSFRα, soluble extracellular domain of the GM-CSF receptor alpha chain, expressed in Sf21 insect cells (receptor, human, UniProt P15509 23-320, looked up)
chain: EKSDLRTVAPASSLNVRFDSRTMNLSWDCQENTTFSKCFLTDKKNRVVEPRLSNNECSCTFREICLHEGVTFEVHVNTSQRGFQQKLLYPNSGREGTAAQNFSCFIYNADLMNCTWARGPTAPRDVQYFLYIRNSKRRREIRCPYYIQDSGTHVGCHLDNLSGLTSRNYFLVNGTSREIGIQFFDSLLDTKKIERFNPPSNVTVRCNTTHCLVRWKQPRTYQKLSYLDFQYQLDVHRKNTQPGTENLLINVSGDLENRYNFPSSEPRAKHSVKIRAADVRILNWSSWSEAIEFGSDDG
modifications: N-linked carbohydrate at Asn229 (modeled as NAG-NAG)
notes: extracellular domain; Cloned into the pIBV5-His vector; Residues 218-316 (domain 2) were traced in the crystal; also called GMRα
binding result [2]: binds | binding result [3]: binds

B3: IL-3, P08700 20-152 (ligand, UniProt P08700 20-152, looked up)
chain: APMTQTTPLKTSWVNCSNMIDEIITHLKQPPLPLLDFNNLNGEDQDILMENNLRRPNLEAFNRAVKSLQNASAIESILKNLLPCLPLATAAPTRHPIHIKDGDWNEFRRKLTFYLKTLENAQAQQTTLSLAIF
modifications: here or on the partner: radio-iodinated (125I) in the COS cell binding assays
ED50 of proliferation of CTL-EN cells in response to IL-3 [4]: 0.0103 µg/mL | fold increase of ED50 against wild type βc [4]: 413 fold

Source: patent US20110150884A1 (ST VINCENT S INSTITUTE OF MEDICAL RESEARCH, published 2011)
